Reference: patent US20120316071A1 (published 2012)

Columns and labels:
[1] = biological target: T1, Recombinant Human DLL4 (R&D Systems Cat#1506-D4/CF) (human, UniProt Q9NR61 27-524); assay: ELISA and 96-well plate ECL
T1 construct: bought recombinant protein; also called rHuman DLL4; delta-like protein 4

[2] = biological target: T2, rHuman P-Cadherin/Fc Chimera, CF (R&D Systems Cat#861-PC) (human, UniProt P22223 108-654); assay: ECL multispot (MSD) binding assay, antigen spotted on plate, Fab 0.04 uM;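 also: purified Fab incubated 1 h at 20 °C on antigen spots, detected via TAG-labelled antibody, ECL read against each well's blank, with signal-to-blank of at least 4 scored as binder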
T2 construct: Bought recombinant protein; Fc part of the bought chimera not given

[3] = biological target: T3, rHuman ErbB2/Fc Chimera, CF (R&D Systems Cat#1129-ER) (human, UniProt P04626 23-652); assay: as above
T3 construct: Bought recombinant protein; also called human epidermal growth factor 2 receptor; Fc part of the bought chimera not given

[4] = biological target: T4, Recombinant Human DLL4 (R&D Systems Cat#1506-D4/CF) (human, UniProt Q9NR61 27-524); assay: as above
T4 construct: Bought recombinant protein; also called delta-like protein 4; rHuman DLL4

[5] = biological target: T5, rHuman CD44/Fc Chimera, CF (R&D Systems Cat#3660-CD) (human, UniProt P16070 21-220); assay: as above
T5 construct: Bought recombinant protein; Fc part of the bought chimera not given

[6] = biological target: T6, rHuman Erythropoietin R/Fc Chimera, CF (R&D Systems Cat#963-ER) (human, UniProt P19235 25-250); assay: as above
T6 construct: Bought recombinant protein; also called EPO R; EPO R/Fc; Fc part of the bought chimera not given
T6 sequence (looked up): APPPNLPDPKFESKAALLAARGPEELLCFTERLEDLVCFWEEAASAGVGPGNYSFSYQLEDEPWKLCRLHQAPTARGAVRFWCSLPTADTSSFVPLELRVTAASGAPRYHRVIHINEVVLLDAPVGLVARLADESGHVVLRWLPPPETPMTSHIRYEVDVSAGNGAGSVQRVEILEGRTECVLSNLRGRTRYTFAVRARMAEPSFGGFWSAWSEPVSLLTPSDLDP

[7] = biological target: T7, rHuman EGF R/Fc Chimera, CF (R&D Systems Cat#344-ER) (human, UniProt P00533 25-645); assay: as above
T7 construct: Bought recombinant protein; also called epidermal growth factor receptor; Fc part of the bought chimera not given

[8] = biological target: T8, rHuman HGF R/c-MET/Fc Chimera, CF (R&D Systems Cat#358-MT/CF) (human, UniProt P08581 25-932); assay: as above
T8 construct: Bought recombinant protein; also called HGF R/Fc; hepatocyte growth factor receptor; Fc part of the bought chimera not given

[9] = biological target: T9, rHuman Notch-1/Fc Chimera, CF (R&D Systems Cat#3647-TK) (human, UniProt P46531 19-526); assay: as above
T9 construct: Bought recombinant protein; Fc part of the bought chimera not given

[10] = biological target: T10, Recombinant Human DLL4 (delta-like protein 4) (human, UniProt Q9NR61 27-524); assay: SPR, Fab on recombinant human DLL4
T10 construct: Bought recombinant protein; also called rHuman DLL4; Delta-like 4

[11] = biological target: T10, Recombinant Human DLL4 (delta-like …); assay: SPR, Fab on recombinant human DLL4; column head x10^5 applied
[12] = biological target: T10, Recombinant Human DLL4 (delta-like …); assay: SPR, Fab on recombinant human DLL4; column head x10^-3 applied
[13] = biological target: T11, Recombinant Human DLL4 (delta-like protein 4) (human, UniProt Q9NR61 27-524); assay: ELISA, Fab on plate-coated recombinant human DLL4
T11 construct: also called rHuman DLL4; Delta-like 4

[14] = biological target: T12, rHuman CD44/Fc Chimera, CF (human, UniProt P16070 21-220); assay: ECL multispot (MSD) binding assay, antigen spotted on plate, 100 nM Fab
T12 construct: Bought protein; Fc part of the bought chimera not given

[15] = biological target: T13, rHuman Notch-1/Fc Chimera, CF (human, UniProt P46531 19-526); assay: as above
T13 construct: Bought protein; Fc part of the bought chimera not given

[16] = biological target: T14, rHuman EGF R/Fc Chimera, CF (human, UniProt P00533 25-645); assay: as above
T14 construct: Bought protein; also called epidermal growth factor receptor; Fc part of the bought chimera not given

[17] = biological target: T15, rHuman P-Cadherin/Fc Chimera, CF (human, UniProt P22223 108-654); assay: as above
T15 construct: Bought protein; Fc part of the bought chimera not given

[18] = biological target: T16, rHuman Erythropoietin R/Fc Chimera, CF (human, UniProt P19235 25-250); assay: as above
T16 construct: Bought protein; also called EPO R; EPO R/Fc; Fc part of the bought chimera not given
T16 sequence (looked up): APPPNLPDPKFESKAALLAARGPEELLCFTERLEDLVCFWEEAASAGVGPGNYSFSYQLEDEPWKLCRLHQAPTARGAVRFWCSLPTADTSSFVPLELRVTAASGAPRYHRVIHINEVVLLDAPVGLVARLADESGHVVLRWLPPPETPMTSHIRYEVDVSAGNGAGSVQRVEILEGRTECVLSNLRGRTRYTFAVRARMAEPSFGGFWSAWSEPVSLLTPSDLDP

[19] = biological target: T17, rHuman ErbB2/Fc Chimera, CF (human, UniProt P04626 23-652); assay: as above
T17 construct: Bought protein; also called human epidermal growth factor 2 receptor; Fc part of the bought chimera not given

[20] = biological target: T18, rHuman IGF-1 sR, (IGF-1 sR), CF (human, UniProt P08069 31-932); assay: as above
T18 construct: The column head prints 'IGF-1'; The antigen panel of the assay holds the soluble IGF-1 receptor, not the ligand; also called insulin-like growth factor-1 soluble receptor

T8 sequence (P08581 25-932, change not shown): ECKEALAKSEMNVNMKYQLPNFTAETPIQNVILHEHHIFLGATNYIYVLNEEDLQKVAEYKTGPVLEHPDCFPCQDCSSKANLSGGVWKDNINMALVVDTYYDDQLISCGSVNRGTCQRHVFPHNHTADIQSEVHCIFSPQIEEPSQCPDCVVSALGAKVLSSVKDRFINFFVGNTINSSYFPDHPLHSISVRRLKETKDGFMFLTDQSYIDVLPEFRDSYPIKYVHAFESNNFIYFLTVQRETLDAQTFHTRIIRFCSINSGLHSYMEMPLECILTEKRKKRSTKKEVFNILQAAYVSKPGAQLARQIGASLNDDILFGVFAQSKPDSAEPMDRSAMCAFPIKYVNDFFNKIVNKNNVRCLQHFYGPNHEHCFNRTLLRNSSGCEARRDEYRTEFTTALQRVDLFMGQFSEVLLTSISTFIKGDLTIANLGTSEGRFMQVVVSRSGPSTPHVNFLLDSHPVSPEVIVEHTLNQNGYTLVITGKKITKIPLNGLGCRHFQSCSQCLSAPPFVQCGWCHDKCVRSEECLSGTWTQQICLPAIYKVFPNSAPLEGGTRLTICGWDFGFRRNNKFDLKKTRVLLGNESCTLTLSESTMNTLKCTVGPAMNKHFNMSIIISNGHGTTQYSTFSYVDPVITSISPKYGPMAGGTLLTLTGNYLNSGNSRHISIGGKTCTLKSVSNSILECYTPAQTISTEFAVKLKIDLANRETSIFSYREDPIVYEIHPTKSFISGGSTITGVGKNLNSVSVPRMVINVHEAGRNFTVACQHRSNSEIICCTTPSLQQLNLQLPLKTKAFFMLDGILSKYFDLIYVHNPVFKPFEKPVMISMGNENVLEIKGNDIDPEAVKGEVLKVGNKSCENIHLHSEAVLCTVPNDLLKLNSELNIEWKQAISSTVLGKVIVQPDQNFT

B1: Fab VH1-46_IGHD6-6*01_IGHJ1*01 S102A/S103P/S104F/H111F (H:APFF) & L6_IGKJ1*01 S28N/S30D/S31H (L:NDH) (Fab, V domains shown)
VH: QVQLVQSGAEVKKPGASVKVSCKASGYTFTSYYMHWVRQAPGQGLEWMGIINPSGGSTSYAQKFQGRVTMTRDTSTSTVYMELSSLRSEDTAVYYCAREEYAPFSAEYFQFWGQGTLVTVSS
VL: EIVLTQSPATLSLSPGERATLSCRASQNVDHYLAWYQQKPGQAPRLLIYDASNRATGIPARFSGSGSGTDFTLTISSLEPEDFAVYYCQQRSNWPPWTFGQGTKVEIKR
notes: Fab; also called H:APFF & L:NDH; APFF-NDH
- fold affinity against the parent antibody APFF mutant [1]: 4 fold

B2: Fab VH1-46_IGHD6-6*01_IGHJ1*01 S102A/S103P/S104F/H111F/G56A (H:APFF G56A) & L6_IGKJ1*01 S28N/S30D/S31H (L:NDH) (Fab, V domains shown)
VH: QVQLVQSGAEVKKPGASVKVSCKASGYTFTSYYMHWVRQAPGQGLEWMGIINPSGASTSYAQKFQGRVTMTRDTSTSTVYMELSSLRSEDTAVYYCAREEYAPFSAEYFQFWGQGTLVTVSS
VL: EIVLTQSPATLSLSPGERATLSCRASQNVDHYLAWYQQKPGQAPRLLIYDASNRATGIPARFSGSGSGTDFTLTISSLEPEDFAVYYCQQRSNWPPWTFGQGTKVEIKR
notes: Fab; also called H:APFF G56A & L:NDH
- fold affinity against the H:APFF & L:wt parental antibody mutant [1]: 8 fold

B3: Fab VH5-51_IGHD5-18*01>3_IGHJ4*01 G100K/G104T (H:KT) & V3-4_IGLJ1*01 V91A (Fab, V domains shown)
VH: EVQLVQSGAEVKKPGESLKISCKGSGYSFTSYWIGWVRQMPGKGLEWMGIIYPGDSDTRYSPSFQGQVTISADKSISTAYLQWSSLKASDTAMYYCARRKYSYTYDYFDYWGQGTLVTVSS
VL: QTVVTQEPSFSVSPGGTVTLTCGLSSGSVSTSYYPSWYQQTPGQAPRTLIYSTNTRSSGVPDRFSGSILGNKAALTITGAQADDESDYYCALYMGSGISYVFGTGTKVTVL
notes: Fab; Expressed from Plasmid A (CH1, His6 and Flag tags) and Plasmid E (lambda CL); also called KT & V91A
- ECL signal [2]: 484
- ECL signal [3]: 1120
- ECL signal [4]: 33400
- ECL signal [5]: 632
- ECL signal [6]: 675
- ECL signal [7]: 833
- ECL signal [8]: 1110
- ECL signal [9]: 682

B4: Fab VH5-51_IGHD5-18*01>3_IGHJ4*01 G100K/G104T G24T/S28R/G35V & V3-4_IGLJ1*01 V91L/S96P (Fab, V domains shown)
VH: EVQLVQSGAEVKKPGESLKISCKTSGYRFTSYWIVWVRQMPGKGLEWMGIIYPGDSDTRYSPSFQGQVTISADKSISTAYLQWSSLKASDTAMYYCARRKYSYTYDYFDYWGQGTLVTVSS
VL: QTVVTQEPSFSVSPGGTVTLTCGLSSGSVSTSYYPSWYQQTPGQAPRTLIYSTNTRSSGVPDRFSGSILGNKAALTITGAQADDESDYYCLLYMGPGISYVFGTGTKVTVL
notes: Fab made in E. coli; VH was cloned in Plasmid A (CH1, His6 and Flag tags) and VL in Plasmid E (lambda CL); also called H:KT TRV & L:LP
- Kd [10]: 3.3 nM
- kon [11]: 1.1e+07 M⁻¹ s⁻¹
- koff [12]: 0.036 s⁻¹

B5: Fab VH5-51_IGHD5-18*01>3_IGHJ4*01 G100K/G104T (H:KT) & V3-4_IGLJ1*01 G23L (Fab, V domains shown)
VH: EVQLVQSGAEVKKPGESLKISCKGSGYSFTSYWIGWVRQMPGKGLEWMGIIYPGDSDTRYSPSFQGQVTISADKSISTAYLQWSSLKASDTAMYYCARRKYSYTYDYFDYWGQGTLVTVSS
VL: QTVVTQEPSFSVSPGGTVTLTCLLSSGSVSTSYYPSWYQQTPGQAPRTLIYSTNTRSSGVPDRFSGSILGNKAALTITGAQADDESDYYCVLYMGSGISYVFGTGTKVTVL
notes: Fab (CH1 with His6/Flag tags from Plasmid A, lambda CL from Plasmid E); also called G100K/G104T & G23L
- ELISA signal [13]: 0.1

B6: Fab VH5-51_IGHD5-18*01>3_IGHJ4*01 G100K/G104T G24T/S28R/G35V & V3-4_IGLJ1*01 V91L/S96P S52G (Fab, V domains shown)
VH: EVQLVQSGAEVKKPGESLKISCKTSGYRFTSYWIVWVRQMPGKGLEWMGIIYPGDSDTRYSPSFQGQVTISADKSISTAYLQWSSLKASDTAMYYCARRKYSYTYDYFDYWGQGTLVTVSS
VL: QTVVTQEPSFSVSPGGTVTLTCGLSSGSVSTSYYPSWYQQTPGQAPRTLIYGTNTRSSGVPDRFSGSILGNKAALTITGAQADDESDYYCLLYMGPGISYVFGTGTKVTVL
notes: Fab made in E. coli; VH was cloned in Plasmid A (CH1, His6 and Flag tags) and VL in Plasmid E (lambda CL); also called H:KT TRV & L:LP S52G
- Kd [10]: 5 nM
- kon [11]: 2.96e+06 M⁻¹ s⁻¹
- koff [12]: 0.0147 s⁻¹

B7: Fab VH3-23_IGHD2-21*01>3_IGHJ6*01 I107A & V2-13_IGLJ2*01 (Fab, V domains shown)
VH: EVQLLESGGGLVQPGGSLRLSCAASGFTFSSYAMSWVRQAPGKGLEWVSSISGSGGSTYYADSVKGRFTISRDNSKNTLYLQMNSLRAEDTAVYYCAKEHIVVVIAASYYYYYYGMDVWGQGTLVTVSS
VL: SSELTQDPAVSVALGQTVRITCQGDSLRSYYASWYQQKPGQAPVLVIYGKNNRPSGIPDRFSGSSSGNTASLTITGAQAEDEADYYCNSRDSSGNHLVVFGGGTKLTVL
notes: Tested as a Fab made in E. coli
- ECL signal/blank ratio (quantity not given) [14]: 1.5
- ECL signal/blank ratio (quantity not given) [15]: 2.7
- ECL signal/blank ratio (quantity not given) [16]: 4.3
- ECL signal/blank ratio (quantity not given) [17]: 19.6
- ECL signal/blank ratio (quantity not given) [18]: 43.6
- ECL signal/blank ratio (quantity not given) [19]: 4.8
- ECL signal/blank ratio (quantity not given) [20]: 1.1

B8: Fab VH3-23_IGHD2-21*01>3_IGHJ6*01 S108A & V2-13_IGLJ2*01 (Fab, V domains shown)
VH: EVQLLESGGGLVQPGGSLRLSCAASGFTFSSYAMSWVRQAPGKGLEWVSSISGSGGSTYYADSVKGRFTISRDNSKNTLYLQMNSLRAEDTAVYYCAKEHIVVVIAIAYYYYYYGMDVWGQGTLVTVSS
VL: SSELTQDPAVSVALGQTVRITCQGDSLRSYYASWYQQKPGQAPVLVIYGKNNRPSGIPDRFSGSSSGNTASLTITGAQAEDEADYYCNSRDSSGNHLVVFGGGTKLTVL
notes: as for B7
- ECL signal/blank ratio (quantity not given) [14]: 1.3
- ECL signal/blank ratio (quantity not given) [15]: 1.5
- ECL signal/blank ratio (quantity not given) [16]: 2
- ECL signal/blank ratio (quantity not given) [17]: 4.8
- ECL signal/blank ratio (quantity not given) [18]: 9.5
- ECL signal/blank ratio (quantity not given) [19]: 1.9
- ECL signal/blank ratio (quantity not given) [20]: 1.2
